# Test results published in patent publication US20220119513A1 (ZOETIS SERVICES, published 2022).
# Substitutions are numbered along the chain they refer to. In names and notes the source's numbering stands.
# T1: TGFβ2 (R&D Systems)
# T1 construct: also called TGFB2
# T1 sequence (P61812 303-414, species assumed, looked up): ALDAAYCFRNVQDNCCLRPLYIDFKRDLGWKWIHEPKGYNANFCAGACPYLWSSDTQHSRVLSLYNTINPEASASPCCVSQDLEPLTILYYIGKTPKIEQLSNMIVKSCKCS
# T2: TGFβ3 (R&D Systems) (Homo sapiens (Human), UniProt P10600 301-412, Active TGFβ3 is a disulfide-linked homodimer of this chain; one copy is given.)
# T2 construct: also called TGFB3
# T2 sequence: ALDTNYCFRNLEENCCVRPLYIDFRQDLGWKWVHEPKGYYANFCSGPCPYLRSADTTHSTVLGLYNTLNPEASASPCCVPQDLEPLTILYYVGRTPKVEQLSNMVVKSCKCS
# B1: affinity matured HcLb 260 (antibody, V domains shown)
# VH: SEVQLVQSGAEVKKPGASVKVSCKTSGYTFITYWMNWVRQAPGAGLDWMGQIFPAWGVTNYNEMFEGRVTLTADTSTSTAYMELSSLRAGDIAVYYCARGYGNYALDAMDYWGQGTLVTVSS
# VL: DIVMTQTPPSLSVSPRETASISCRASESVDSYGNSFMHWYLQKPGQSPQLLIYLASNLESGVSDRFSGSGSGTDFTLRISRVEANDTGVYYCQQNNEDPLTFGQ
# notes: full IgG; constant regions not restated
# B2: affinity matured HcLb 217 (antibody, V domains shown)
# VH: EVQLVQSGAEVKKPGASVKVSCKTSGYTFMTYWMNWVRQAPGAGLDWMGQIFPAWGSTNYNEMFEGRVTLTADTSTSTAYMELSSLRAGDIAVYYCARGYGNYALDAMDYWGQGTLVTVSS
# VL: DIVMTQTPPSLSVSPRETASISCRASESVDSYGNSFMHWYLQKPGQSPQLLIYLASNLESGVSDRFSGSGSGTDFTLRISRVEANDTGVYYCQQNDEDPLSFGQGTK
# notes: full IgG; also called canHcLb/S55W/D100Y/I30/M + canHcLb/237ND/242TS
# B3: affinity matured HcLb 237 (antibody, V domains shown)
# VH: B2 VH with M30I, S57V
# VL: B2 VL
# notes: full IgG; also called canHcLb/55SW/100DY/57/SV + canHcLb/237ND/242TS
# B4: affinity matured HcLb 188 (antibody, V domains shown)
# VH: B2 VH with M30I
# VL: B1 VL
# notes: as for B1
# B5: affinity matured HcLb 233 (antibody, V domains shown)
# VH: B2 VH with M30I, S57M
# VL: B2 VL
# notes: full IgG; also called canHcLb/55SW/100DY/57/SM + canHcLb/237ND/242TS
# B6: affinity matured HcLb 261 (antibody, V domains shown)
# VH: B2 VH
# VL: B1 VL
# notes: as for B1
# B7: affinity matured HcLb 259 (antibody, V domains shown)
# VH: B2 VH with M30I, S57M
# VL: B1 VL
# notes: as for B1
# B8: affinity matured HcLb 262 (antibody, V domains shown)
# VH: B2 VH with M30I, T31K
# VL: B1 VL
# notes: as for B1
# B9: affinity matured HcLb 257 (antibody, V domains shown)
# VH: B2 VH with T31K
# VL: B2 VL
# notes: full IgG; also called canHcLb/55SW/100DY/30IM/31TK + canHcLb/237ND/242TS
# B10: affinity matured HcLb 258 (antibody, V domains shown)
# VH: B2 VH with T31K
# VL: B1 VL
# notes: as for B1
# B11: affinity matured HcLb 263 (antibody, V domains shown)
# VH: B2 VH with T28I, M30I
# VL: B1 VL
# notes: as for B1
# B12: affinity matured HcLb 239 (antibody, V domains shown)
# VH: B2 VH with M30I, T31K
# VL: B2 VL
# notes: full IgG; also called canHcLb/55SW/100DY/31/TK + canHcLb/237ND/242TS
# B13: Can-SL501-VH3 D108K / Can-SL501-VL2 (antibody, V domains shown)
# VH: EVQLVESGGDLVKPGGSLRLSCVASGFTFSSYGMHWVRQAPGKELEWVAVISYDGSIKYYADAVKGRFTISRDNAKNTLYLQMNSLRAEDTAVYYCARTGEYSGYDTKPQYSWGQGTTVTVSS
# VL: EIVMTQSPGSLAGSAGESVSINCRASQGIGDDLGWYQQKPGERPKLLIYGTSTLQSGVPARFSSSGSGTDFTLTINNLQAEDVGDYYCLQDSNYPLTFGAGTK
# B14: Can-SL501-VH3 P109T / Can-SL501-VL2 (antibody, V domains shown)
# VH: B13 VH with K108D, P109T
# VL: B13 VL
# B15: Can-SL501-VH3 D108R / Can-SL501-VL2 (antibody, V domains shown)
# VH: B13 VH with K108R
# VL: B13 VL
# B16: Can-SL501-VH3 P109A / Can-SL501-VL2 (antibody, V domains shown)
# VH: B13 VH with K108D, P109A
# VL: B13 VL
# B17: Can-SL501-VH3 Y111L / Can-SL501-VL2 (antibody, V domains shown)
# VH: B13 VH with K108D, Y111L
# VL: B13 VL
# B18: Can-SL501-VH3 Q110K / Can-SL501-VL2 (antibody, V domains shown)
# VH: B13 VH with K108D, Q110K
# VL: B13 VL
# B19: Can-SL501-VH3 Q110D / Can-SL501-VL2 (antibody, V domains shown)
# VH: B13 VH with K108D, Q110D
# VL: B13 VL
# B20: Can-SL501-VH3 Q110N / Can-SL501-VL2 (antibody, V domains shown)
# VH: B13 VH with K108D, Q110N
# VL: B13 VL
# B21: Can-SL501-VH3 Y111I / Can-SL501-VL2 (antibody, V domains shown)
# VH: B13 VH with K108D, Y111I
# VL: B13 VL
# B22: Can-SL501-VH3 Q110E / Can-SL501-VL2 (antibody, V domains shown)
# VH: B13 VH with K108D, Q110E
# VL: B13 VL
# B23: Can-SL501-VH3 Y111F / Can-SL501-VL2 (antibody, V domains shown)
# VH: B13 VH with K108D, Y111F
# VL: B13 VL
# Target: T1, TGFβ2 (R&D Systems)
# Experiment: SPR full titration
row,Binder,Kd [nM]
1,B1,4.36
2,B2,3.91
3,B3,4.07
4,B4,0.937
5,B5,3.98
6,B6,3.92
7,B7,3.75
8,B8,6.73
9,B9,4.72
10,B10,4.4
11,B11,2.91
12,B12,6.44

# Target: T2, TGFβ3 (R&D Systems)
# Experiment: SPR full titration
row,Binder,Kd [nM]
1,B1,0.79
2,B2,0.676
3,B3,0.476
4,B4,0.417
5,B5,0.457
6,B6,0.87
7,B7,0.78
8,B8,0.856
9,B9,0.649
10,B10,8.6
11,B11,0.37
12,B12,0.431

# Target: T3, TGFβ1 (R&D Systems)
# T3 construct: also called TGFB1
# Experiment: SPR full titration
# T3 sequence (P01137 279-390): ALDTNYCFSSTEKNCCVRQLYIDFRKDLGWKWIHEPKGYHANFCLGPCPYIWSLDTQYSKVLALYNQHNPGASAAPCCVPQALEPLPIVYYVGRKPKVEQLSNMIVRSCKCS
row,Binder,Kd [nM]
1,B1,3.79
2,B2,2.58
3,B3,2.27
4,B4,3.96
5,B5,2.03
6,B6,6.18
7,B7,3.05
8,B8,6.18
9,B9,2.03
10,B10,3.81
11,B11,3.76
12,B12,3.53

# Target: T3, TGFβ1 (R&D Systems)
# Experiment: single point SPR
row,Binder,Kd [nM]
1,B13,0.283
2,B14,0.752
3,B15,0.759
4,B16,1.1
5,B17,1.11
6,B18,5.11
7,B19,8.01
8,B20,5.64
9,B21,0.562
10,B22,13.5
11,B23,8.04

# Target: T1, TGFβ2 (R&D Systems)
# Experiment: cell-based or functional assay
row,Binder,"pSmad-3, IC50 [nM]"
1,B1,1.64
2,B2,1.71
3,B3,1.6
4,B4,2.29
5,B5,1.68
6,B6,1.15
7,B7,1.37
8,B8,1.85
9,B9,2.02
10,B10,0.79
11,B11,2.1
12,B12,5.42

# Target: T2, TGFβ3 (R&D Systems)
# Experiment: cell-based or functional assay
row,Binder,"pSmad-3, IC50 [nM]"
1,B1,1.24
2,B2,1.44
3,B3,1.05
4,B4,1.46
5,B5,1.33
6,B6,1.2
7,B7,1.48
8,B8,1.37
9,B9,1.6
10,B10,1.09
11,B11,1.03
12,B12,1.54

# Target: T3, TGFβ1 (R&D Systems)
# Experiment: cell-based or functional assay
row,Binder,"pSmad-3, IC50 [nM]"
1,B1,1.33
2,B2,0.78
3,B3,0.76
4,B4,2.73
5,B5,0.71
6,B6,0.69
7,B7,0.99
8,B8,3.16
9,B9,0.7
10,B10,0.61
11,B11,1.41
12,B12,1.43

# Target: T3, TGFβ1 (R&D Systems)
# Experiment: SPR full titration
# Remark: another data set of the same source
row,Binder,Kd [nM]
1,B13,0.0346
2,B14,0.0836
3,B15,0.0651
4,B16,0.135
5,B18,0.111
6,B19,0.0503
7,B20,0.0809
8,B21,0.0308
9,B22,0.0657
10,B23,0.065

# Target: T3, TGFβ1 (R&D Systems)
# Experiment: cell-based or functional assay
# Remark: another data set of the same source
row,Binder,"CMVIC pSmad-3, IC50 [nM]"
1,B13,10.9
2,B14,30
3,B15,25.2
4,B16,20.8
5,B17,32.6
6,B18,30.5
7,B19,4.83
8,B20,8.95
9,B21,50.2
10,B22,6.65
11,B23,43.3
